# Measurements: US20180155451A1 (published 2018)
# T1: FcγRIIb (human, UniProt P31994 43-217)
# T1 construct: extracellular domain; Soluble His-tagged extracellular domain expressed in FreeStyle293 cells; also called FcgRIIb; 2b; not shown: His tag attached to the C terminus
# T1 sequence (looked up): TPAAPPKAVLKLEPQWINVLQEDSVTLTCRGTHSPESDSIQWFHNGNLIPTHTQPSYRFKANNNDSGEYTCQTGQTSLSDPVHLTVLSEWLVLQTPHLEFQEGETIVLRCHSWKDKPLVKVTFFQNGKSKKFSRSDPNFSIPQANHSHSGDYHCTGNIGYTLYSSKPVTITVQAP
# T2: FcγRIIa H (human, UniProt P12318 34-217)
# T2 construct: extracellular domain; Soluble His-tagged extracellular domain expressed in FreeStyle293 cells; also called FcγRIIa type H; FcgRIIa H; not shown: His tag attached to the C terminus
# T2 sequence (looked up): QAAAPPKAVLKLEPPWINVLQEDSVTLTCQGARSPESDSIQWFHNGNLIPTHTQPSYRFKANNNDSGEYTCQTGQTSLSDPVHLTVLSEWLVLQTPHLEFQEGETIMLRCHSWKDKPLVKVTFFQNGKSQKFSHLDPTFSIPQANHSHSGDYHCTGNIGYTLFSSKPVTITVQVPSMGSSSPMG
# B1: GpH7-A5/GpH7-B3 variant A327_14T/GpL16-k0 (antibody, human IgG1, kappa)
# heavy 1: not shown
# heavy 2: not shown
# light: DIVMTQSPLSLPVTPGEPASISCQASESLVHSNRNTYLHWYLQKPGQSPQLLIYKVSNRFSGVPDRFSGSGSGTDFTLKISRVEAEDVGVYYCSQNTHVPPTFGQGTKVEIERTVAAPSVFIFPPSDEQLKSGTASVVCLLNNFYPREAKVQWKVDNALQSGNSQESVTEQDSKDSTYSLSSTLTLSKADYEKHKVYACEVTHQGLSSPVTKSFNRGEC
# notes: Heterodimerized anti-glypican-3 IgG1; mutation in the GpH7-B3 H chain only; also called He Ab
# B2: GpH7-A5/GpH7-B3 variant A330_05P/GpL16-k0 (antibody, human IgG1, kappa)
# heavy 1: not shown
# heavy 2: not shown
# light: DIVMTQSPLSLPVTPGEPASISCQASESLVHSNRNTYLHWYLQKPGQSPQLLIYKVSNRFSGVPDRFSGSGSGTDFTLKISRVEAEDVGVYYCSQNTHVPPTFGQGTKVEIERTVAAPSVFIFPPSDEQLKSGTASVVCLLNNFYPREAKVQWKVDNALQSGNSQESVTEQDSKDSTYSLSSTLTLSKADYEKHKVYACEVTHQGLSSPVTKSFNRGEC
# notes: as for B1
# B3: GpH7-A5/GpH7-B3 variant A327_18N/GpL16-k0 (antibody, human IgG1, kappa)
# heavy 1: not shown
# heavy 2: not shown
# light: DIVMTQSPLSLPVTPGEPASISCQASESLVHSNRNTYLHWYLQKPGQSPQLLIYKVSNRFSGVPDRFSGSGSGTDFTLKISRVEAEDVGVYYCSQNTHVPPTFGQGTKVEIERTVAAPSVFIFPPSDEQLKSGTASVVCLLNNFYPREAKVQWKVDNALQSGNSQESVTEQDSKDSTYSLSSTLTLSKADYEKHKVYACEVTHQGLSSPVTKSFNRGEC
# notes: as for B1
# B4: GpH7-A5/GpH7-B3 variant L328_06M/GpL16-k0 (antibody, human IgG1, kappa)
# heavy 1: not shown
# heavy 2: not shown
# light: DIVMTQSPLSLPVTPGEPASISCQASESLVHSNRNTYLHWYLQKPGQSPQLLIYKVSNRFSGVPDRFSGSGSGTDFTLKISRVEAEDVGVYYCSQNTHVPPTFGQGTKVEIERTVAAPSVFIFPPSDEQLKSGTASVVCLLNNFYPREAKVQWKVDNALQSGNSQESVTEQDSKDSTYSLSSTLTLSKADYEKHKVYACEVTHQGLSSPVTKSFNRGEC
# notes: as for B1
# B5: GpH7-A5/GpH7-B3 variant L328_07I/GpL16-k0 (antibody, human IgG1, kappa)
# heavy 1: not shown
# heavy 2: not shown
# light: DIVMTQSPLSLPVTPGEPASISCQASESLVHSNRNTYLHWYLQKPGQSPQLLIYKVSNRFSGVPDRFSGSGSGTDFTLKISRVEAEDVGVYYCSQNTHVPPTFGQGTKVEIERTVAAPSVFIFPPSDEQLKSGTASVVCLLNNFYPREAKVQWKVDNALQSGNSQESVTEQDSKDSTYSLSSTLTLSKADYEKHKVYACEVTHQGLSSPVTKSFNRGEC
# notes: as for B1
# B6: GpH7-A5/GpH7-B3 variant L328_15Y/GpL16-k0 (antibody, human IgG1, kappa)
# heavy 1: not shown
# heavy 2: not shown
# light: DIVMTQSPLSLPVTPGEPASISCQASESLVHSNRNTYLHWYLQKPGQSPQLLIYKVSNRFSGVPDRFSGSGSGTDFTLKISRVEAEDVGVYYCSQNTHVPPTFGQGTKVEIERTVAAPSVFIFPPSDEQLKSGTASVVCLLNNFYPREAKVQWKVDNALQSGNSQESVTEQDSKDSTYSLSSTLTLSKADYEKHKVYACEVTHQGLSSPVTKSFNRGEC
# notes: as for B1
# B7: GpH7-A5/GpH7-B3 variant N325_14T/GpL16-k0 (antibody, human IgG1, kappa)
# heavy 1: not shown
# heavy 2: not shown
# light: DIVMTQSPLSLPVTPGEPASISCQASESLVHSNRNTYLHWYLQKPGQSPQLLIYKVSNRFSGVPDRFSGSGSGTDFTLKISRVEAEDVGVYYCSQNTHVPPTFGQGTKVEIERTVAAPSVFIFPPSDEQLKSGTASVVCLLNNFYPREAKVQWKVDNALQSGNSQESVTEQDSKDSTYSLSSTLTLSKADYEKHKVYACEVTHQGLSSPVTKSFNRGEC
# notes: as for B1
# B8: GpH7-A5/GpH7-B3 variant L328_09D/GpL16-k0 (antibody, human IgG1, kappa)
# heavy 1: not shown
# heavy 2: not shown
# light: DIVMTQSPLSLPVTPGEPASISCQASESLVHSNRNTYLHWYLQKPGQSPQLLIYKVSNRFSGVPDRFSGSGSGTDFTLKISRVEAEDVGVYYCSQNTHVPPTFGQGTKVEIERTVAAPSVFIFPPSDEQLKSGTASVVCLLNNFYPREAKVQWKVDNALQSGNSQESVTEQDSKDSTYSLSSTLTLSKADYEKHKVYACEVTHQGLSSPVTKSFNRGEC
# notes: as for B1
# B9: GpH7-A5/GpH7-B3 variant L328_05P/GpL16-k0 (antibody, human IgG1, kappa)
# heavy 1: not shown
# heavy 2: not shown
# light: DIVMTQSPLSLPVTPGEPASISCQASESLVHSNRNTYLHWYLQKPGQSPQLLIYKVSNRFSGVPDRFSGSGSGTDFTLKISRVEAEDVGVYYCSQNTHVPPTFGQGTKVEIERTVAAPSVFIFPPSDEQLKSGTASVVCLLNNFYPREAKVQWKVDNALQSGNSQESVTEQDSKDSTYSLSSTLTLSKADYEKHKVYACEVTHQGLSSPVTKSFNRGEC
# notes: as for B1
# B10: GpH7-A5/GpH7-B3 variant L328_03V/GpL16-k0 (antibody, human IgG1, kappa)
# heavy 1: not shown
# heavy 2: not shown
# light: DIVMTQSPLSLPVTPGEPASISCQASESLVHSNRNTYLHWYLQKPGQSPQLLIYKVSNRFSGVPDRFSGSGSGTDFTLKISRVEAEDVGVYYCSQNTHVPPTFGQGTKVEIERTVAAPSVFIFPPSDEQLKSGTASVVCLLNNFYPREAKVQWKVDNALQSGNSQESVTEQDSKDSTYSLSSTLTLSKADYEKHKVYACEVTHQGLSSPVTKSFNRGEC
# notes: as for B1
# B11: GpH7-A5/GpH7-B3 variant N325_13S/GpL16-k0 (antibody, human IgG1, kappa)
# heavy 1: not shown
# heavy 2: not shown
# light: DIVMTQSPLSLPVTPGEPASISCQASESLVHSNRNTYLHWYLQKPGQSPQLLIYKVSNRFSGVPDRFSGSGSGTDFTLKISRVEAEDVGVYYCSQNTHVPPTFGQGTKVEIERTVAAPSVFIFPPSDEQLKSGTASVVCLLNNFYPREAKVQWKVDNALQSGNSQESVTEQDSKDSTYSLSSTLTLSKADYEKHKVYACEVTHQGLSSPVTKSFNRGEC
# notes: as for B1
# B12: GpH7-A5/GpH7-B3 variant L328_10E/GpL16-k0 (antibody, human IgG1, kappa)
# heavy 1: not shown
# heavy 2: not shown
# light: DIVMTQSPLSLPVTPGEPASISCQASESLVHSNRNTYLHWYLQKPGQSPQLLIYKVSNRFSGVPDRFSGSGSGTDFTLKISRVEAEDVGVYYCSQNTHVPPTFGQGTKVEIERTVAAPSVFIFPPSDEQLKSGTASVVCLLNNFYPREAKVQWKVDNALQSGNSQESVTEQDSKDSTYSLSSTLTLSKADYEKHKVYACEVTHQGLSSPVTKSFNRGEC
# notes: as for B1
# B13: GpH7-A5/GpH7-B3 variant I332_10E/GpL16-k0 (antibody, human IgG1, kappa)
# heavy 1: not shown
# heavy 2: not shown
# light: DIVMTQSPLSLPVTPGEPASISCQASESLVHSNRNTYLHWYLQKPGQSPQLLIYKVSNRFSGVPDRFSGSGSGTDFTLKISRVEAEDVGVYYCSQNTHVPPTFGQGTKVEIERTVAAPSVFIFPPSDEQLKSGTASVVCLLNNFYPREAKVQWKVDNALQSGNSQESVTEQDSKDSTYSLSSTLTLSKADYEKHKVYACEVTHQGLSSPVTKSFNRGEC
# notes: as for B1
# B14: GpH7-A5/GpH7-B3 variant L328_04F/GpL16-k0 (antibody, human IgG1, kappa)
# heavy 1: not shown
# heavy 2: not shown
# light: DIVMTQSPLSLPVTPGEPASISCQASESLVHSNRNTYLHWYLQKPGQSPQLLIYKVSNRFSGVPDRFSGSGSGTDFTLKISRVEAEDVGVYYCSQNTHVPPTFGQGTKVEIERTVAAPSVFIFPPSDEQLKSGTASVVCLLNNFYPREAKVQWKVDNALQSGNSQESVTEQDSKDSTYSLSSTLTLSKADYEKHKVYACEVTHQGLSSPVTKSFNRGEC
# notes: as for B1
# B15: GpH7-A5/GpH7-B3 variant L328_20W/GpL16-k0 (antibody, human IgG1, kappa)
# heavy 1: not shown
# heavy 2: not shown
# light: DIVMTQSPLSLPVTPGEPASISCQASESLVHSNRNTYLHWYLQKPGQSPQLLIYKVSNRFSGVPDRFSGSGSGTDFTLKISRVEAEDVGVYYCSQNTHVPPTFGQGTKVEIERTVAAPSVFIFPPSDEQLKSGTASVVCLLNNFYPREAKVQWKVDNALQSGNSQESVTEQDSKDSTYSLSSTLTLSKADYEKHKVYACEVTHQGLSSPVTKSFNRGEC
# notes: as for B1
# Legend:
# [1] = biological target: T1, FcγRIIb; experiment: SPR (Biacore), captured antibody, FcγR analyte; relative to GpH7-A5/GpH7-B3/GpL16-k0 = 100
# Protocol: (§1) Analysis of interaction between objective antibody and the FcγR was carried out using Biacore T100 (GE Healthcare). HBS-EP+ (GE Healthcare) was used as the running buffer, and the measurement temperature was set to 25° C. Chips produced by immobilizing the antigen peptide by the amine coupling method to a Series S Sencor Chip CM5 (GE Healthcare), or alternatively, chips produced by allowing preliminarily biotinylated antigen peptides to interact with and immobilize onto a Series S Sensor Chip SA (certified) (GE Healthcare) were used. Antibodies of interest were captured onto an antigen peptide-immobilized chip, and allowed to interact to each FcγR diluted with running buffer. To regenerate and repeatedly use the chip, the antibodies captured on the chip were washed off by reacting 10 mM glycine-HCl, pH 1.5.
# (§2) The FcγR-binding activity of each antibody was assessed primarily using as an indicator the FcγR-binding activity and dissociation constant for FcγR.
# [2] = biological target: T2, FcγRIIa H; experiment: as above
# Protocol: as §1, §2
# [3] = biological target: T2, FcγRIIa H; experiment: SPR (Biacore); He/Con_2aH divided by He/Con_2b (FcγRIIb) of the same antibody
# Protocol: The heterodimerized antibodies He Abs in which one of the H chains was introduced with an alteration were assayed for their binding activities to each activating FcγR and inhibitory FcγR according to the method described in Example 4. […] The activating FcγRs in FIGS. 26, 27, 28, and 29 are FcγRIa, FcγRIIa (R), FcγRIIa (H), and FcγRIIIa, respectively.
# as §1
Binder,He/Con_2b [1],He/Con_2aH [2],He_2aH/2b [3] [ratio]
B1,89.4 relative (control = 100),45.6 relative (control = 100),0.51
B2,137 relative (control = 100),85.7 relative (control = 100),0.63
B3,113 relative (control = 100),66.8 relative (control = 100),0.59
B4,142 relative (control = 100),104 relative (control = 100),0.73
B5,160 relative (control = 100),93.9 relative (control = 100),0.59
B6,193 relative (control = 100),90 relative (control = 100),0.47
B7,91.6 relative (control = 100),62.7 relative (control = 100),0.68
B8,199 relative (control = 100),58.5 relative (control = 100),0.29
B9,65.1 relative (control = 100),45.4 relative (control = 100),0.7
B10,126 relative (control = 100),97.8 relative (control = 100),0.78
B11,177 relative (control = 100),79.7 relative (control = 100),0.45
B12,172 relative (control = 100),55.5 relative (control = 100),0.32
B13,142 relative (control = 100),108 relative (control = 100),0.76
B14,219 relative (control = 100),71.7 relative (control = 100),0.33
B15,235 relative (control = 100),113 relative (control = 100),0.48
